{
  "source": "IntAct's records for PubMed 24332715",
  "parents": {"B1": {"name": "Dynamin-binding protein (Homo sapiens), Q6XZF7-1 (parent)", "chain": "MEAGSVVRAIFDFCPSVSEELPLFVGDIIEVLAVVDEFWLLGKKEDVTGQFPSSFVEIVTIPSLKEGERLFVCICEFTSQELDNLPLHRGDLVILDGIPTAGWLQGRSCWGARGFFPSSCVRELCLSSQSRQWHSQSALFQIPEYSMGQARALMGLSAQLDEELDFREGDVITIIGVPEPGWFEGELEGRRGIFPEGFVELLGPLRTVDESVSSGNQDDCIVNGEVDTPVGEEEIGPDEDEEEPGTYGVALYRFQALEPNELDFEVGDKIRILATLEDGWLEGSLKGRTGIFPYRFVKLCPDTRVEETMALPQEGSLARIPETSLDCLENTLGVEEQRHETSDHEAEEPDCIISEAPTSPLGHLTSEYDTDRNSYQDEDTAGGPPRSPGVEWEMPLATDSPTSDPTEVVNGISSQPQVPFHPNLQKSQYYSTVGGSHPHSEQYPDLLPLEARTRDYASLPPKRMYSQLKTLQKPVLPLYRGSSVSASRVVKPRQSSPQLHNLASYTKKHHTSSVYSISERLEMKPGPQAQGLVMEAATHSQGDGSTDLDSKLTQQLIEFEKSLAGPGTEPDKILRHFSIMDFNSEKDIVRGSSKLITEQELPERRKALRPPPPRPCTPVSTSPHLLVDQNLKPAPPLVVRPSRPAPLPPSAQQRTNAVSPKLLSRHRPTCETLEKEGPGHMGRSLDQTSPCPLVLVRIEEMERDLDMYSRAQEELNLMLEEKQDESSRAETLEDLKFCESNIESLNMELQQLREMTLLSSQSSSLVAPSGSVSAENPEQRMLEKRAKVIEELLQTERDYIRDLEMCIERIMVPMQQAQVPNIDFEGLFGNMQMVIKVSKQLLAALEISDAVGPVFLGHRDELEGTYKIYCQNHDEAIALLEIYEKDEKIQKHLQDSLADLKSLYNEWGCTNYINLGSFLIKPVQRVMRYPLLLMELLNSTPESHPDKVPLTNAVLAVKEINVNINEYKRRKDLVLKYRKGDEDSLMEKISKLNIHSIIKKSNRVSSHLKHLTGFAPQIKDEVFEETEKNFRMQERLIKSFIRDLSLYLQHIRESACVKVVAAVSMWDVCMERGHRDLEQFERVHRYISDQLFTNFKERTERLVISPLNQLLSMFTGPHKLVQKRFDKLLDFYNCTERAEKLKDKKTLEELQSARNNYEALNAQLLDELPKFHQYAQGLFTNCVHGYAEAHCDFVHQALEQLKPLLSLLKVAGREGNLIAIFHEEHSRVLQQLQVFTFFPESLPATKKPFERKTIDRQSARKPLLGLPSYMLQSEELRASLLARYPPEKLFQAERNFNAAQDLDVSLLEGDLVGVIKKKDPMGSQNRWLIDNGVTKGFVYSSFLKPYNPRRSHSDASVGSHSSTESEHGSSSPRFPRQNSGSTLTFNPSSMAVSFTSGSCQKQPQDASPPPKECDQGTLSASLNPSNSESSPSRCPSDPDSTSQPRSGDSADVARDVKQPTATPRSYRNFRHPEIVGYSVPGRNGQSQDLVKGCARTAQAPEDRSTEPDGSEAEGNQVYFAVYTFKARNPNELSVSANQKLKILEFKDVTGNTEWWLAEVNGKKGYVPSNYIRKTEYT"}, "B2": {"name": "Internalin C (Listeria monocytogenes serotype 1/2a), P71451 (parent)", "chain": "MLKKNNWLQNAVIAMLVLIVGLCINMGSGTKVQAESIQRPTPINQVFPDPGLANAVKQNLGKQSVTDLVSQKELSGVQNFNGDNSNIQSLAGMQFFTNLKELHLSHNQISDLSPLKDLTKLEELSVNRNRLKNLNGIPSACLSRLFLDNNELRDTDSLIHLKNLEILSIRNNKLKSIVMLGFLSKLEVLDLHGNEITNTGGLTRLKKVNWIDLTGQKCVNEPVKYQPELYITNTVKDPDGRWISPYYISNGGSYVDGCVLWELPVYTDEVSYKFSEYINVGETEAIFDGTVTQPIKN"}},
  "data": [
    {"variants_of": "B1", "settings": "with inlc_lismg inlC", "values": [
      {"variant": "V1521R", "effect of a mutation on the interaction": "decreasing interaction strength"},
      {"variant": "N1569R", "effect of a mutation on the interaction": "decreasing interaction strength"}
    ]},
    {"variants_of": "B2", "settings": "with DNMBP", "values": [
      {"variant": "F146A", "effect of a mutation on the interaction": "decreasing interaction strength"}
    ]}
  ]
}
